The record followed here is ChEMBL document CHEMBL2074123, “Expression cloning of a rat liver Na(+)-independent organic anion transporter” (Proc Natl Acad Sci U S A, 1994).

Substrate in this data set: O=C1OC(c2ccc(O)c(S(=O)(=O)O)c2)(c2ccc(O)c(S(=O)(=O)O)c2)c2c(Br)c(Br)c(Br)c(Br)c21
Description: TP_TRANSPORTER: uptake (no BSA) in Xenopus laevis oocytes. The data set is classed as functional, cell-based, Oocyte.

As a reminder, the Km is the concentration of substrate that gives half-maximal velocity.

B1: Solute carrier organic anion transporter family member 1A1 (Rattus norvegicus) (protein)
chain: MEETEKKIATQEGRLFSKMKVFLLSLTCACLTKSLSGVYMNSMLTQIERQFDISTSVAGLINGSFEIGNLFFIVFVSYFGTKLHRPVVIGIGCVIMGLGCLLMSLPHFFMGRYEYETTISPTGNLSSNSFLCMENRTQTLKPTQDPAECVKEMKSLMWICVMVGNIIRGIGETPIVPLGISYIEDFAKSENSPLYIGILEMGKVAGPIFGLLLGSYCAQIYVDIGSVNTDDLTITPSDTRWVGAWWIGFLVCAGVNILTSIPFFFLPKALPKKGQQENVAVTKDGKVEKYGGQAREENLGITKDFLTFMKRLFCNPIYMLFILTSVLQVNGFINKFTFLPKYLEQQYGKSTAEAIFLIGVYSLPPICLGYLIGGFIMKKFKITVKKAAYLAFCLSVFEYLLFLCHFMLTCDNAAVAGLTTSYKGVQHQLHVESKVLADCNTRCSCSTNTWDPVCGDNGVAYMSACLAGCKKFVGTGTNMVFQDCSCIQSLGNSSAVLGLCKKGPECANRLQYFLILTIIISFIYSLTAIPGYMVFLRCVKSEEKSLGVGLHTFCIRVFAGIPAPVYFGALIDRTCLHWGTLKCGQRGACRMYDINSFRHIYLGLPIALRGSSYLPAFFILILMRKFQFPGDIDSSATDHTEMMLGEKESEHTDVHGSPQVENDGELKTKL
Take B1: the Km was 1.5 µM.
